Laboratory results reported in patent US20160257728A1 (JOINT CENTER FOR BIOSCIENCES, published 2016).
Values belong to the binder of their own block, whether it stands above or below them.

B5: MB109 protein (bioactive recombinant human BMP-9 expressed in E. coli and refolded; functional dimer) (ligand)
chain: MSAGAGSHCQKTSLRVNFEDIGWDSWIIAPKEYEAYECKGGCFFPLADDVTPTKHAIVQTLVHLKFPTKVGKACCVPTKLSPISVLYKDDMGVPTLKYHYEGMSVAECGCR
notes: also called purified MB109

Assays:
[1] = target: B5; assay: SPR (BIAcore 3000), ECD-Fc on CM5 chip, MB109 as analyte
Method: (§1) The receptor ECDs were purchased from R&D Systems (Minneapolis, USA) as C-terminal Fc-tagged chimera. The binding affinities were measured using a BIAcore 3000 (GE Healthcare, USA) following a protocol described previously by Allendorph et al. with minor modification (see, e.g., Allendorph et al., Plos One 6(11):e26402 (2011), and Allendorph et al., Proceedings of the National Academy of Sciences of the United States of America 103(20):7643-7648, 2006). In brief, the ECD-Fc proteins were prepared in a pH 4.0 solution and captured on flow cell 2, 3 and 4 of the CM5 sensor chip at a flow rate of 10 μL/min until the density researched ˜1,000 response units. Flow cell 1 was left blank for background subtraction. For kinetic analysis, purified MB109 was prepared in a series of 2-fold dilution in an assay solution (10 mM HEPES, pH 7.4, 150 mM NaCl, 3.4 mM EDTA and 0.005% Tween-20) and injected over the flow cells at a flow rate of […]. All tests were performed using a set of 2-fold diluted protein concentrations from 20 to 0.3 nM plus the assay solution as a blank. The data fitting was performed using a minimum of 4 concentrations and a global 1:1 Langmuir binding with mass transfer model.
(§2) To determine receptor binding specificity of MB109, purified MB109 was subjected to surface plasmon resonance analysis to determine its binding affinities to immobilized extracellular domains (ECDs) of Type I and Type II receptors, including ALK1, ActRIa (ALK2), ActRIb (ALK4), BMPRIa (ALK3), BMPRIb (ALK6), TGFβRI (ALK5), ALK7, ActRIIa, ActRIIb, BMPRII, TGF-βRII and MISRII. Among these receptor ECDs, MB109 had strong binding affinity only to ALK1, ActRIIb and BMPRII, while the binding to the other receptor ECDs were either very transient (to ActRIIa) or non-detectable (see TABLE 2).

[2] = target: T1, BMPRIa (ALK3) ECD-Fc (human, UniProt P36894 24-152, limits assumed); assay: as above
T1 construct: extracellular domain; Bought from R&D Systems as C-terminal Fc-tagged chimera; not shown: C-terminal human IgG1 Fc tag
T1 sequence (P36894 24-152 limits assumed): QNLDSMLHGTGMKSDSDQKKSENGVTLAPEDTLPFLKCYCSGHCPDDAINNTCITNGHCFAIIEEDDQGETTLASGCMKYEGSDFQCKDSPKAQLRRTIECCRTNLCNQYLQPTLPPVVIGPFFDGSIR
Method: as §1, §2

[3] = target: T2, MISRII ECD-Fc (human, UniProt Q16671 18-149, limits assumed); assay: as above
T2 construct: extracellular domain; Bought from R&D Systems as C-terminal Fc-tagged chimera; not shown: C-terminal human IgG1 Fc tag
T2 sequence (Q16671 18-149 limits assumed): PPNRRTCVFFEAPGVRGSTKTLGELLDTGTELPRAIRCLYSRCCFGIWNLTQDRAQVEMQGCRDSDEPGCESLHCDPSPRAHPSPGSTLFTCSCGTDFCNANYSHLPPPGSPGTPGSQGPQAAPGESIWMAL
Method: as §1, §2

[4] = target: T3, BMPRIb (ALK6) ECD-Fc (human, UniProt O00238 14-126); assay: as above
T3 construct: extracellular domain; Bought from R&D Systems as C-terminal Fc-tagged chimera; not shown: C-terminal human IgG1 Fc tag
T3 sequence (looked up): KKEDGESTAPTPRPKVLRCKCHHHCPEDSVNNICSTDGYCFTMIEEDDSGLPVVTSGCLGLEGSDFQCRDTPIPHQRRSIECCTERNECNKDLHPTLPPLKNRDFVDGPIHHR
Method: as §1, §2

[5] = target: T4, TGF-βRII ECD-Fc (human, UniProt P37173 23-166); assay: as above
T4 construct: extracellular domain; Bought from R&D Systems as C-terminal Fc-tagged chimera; not shown: C-terminal human IgG1 Fc tag
T4 sequence (P37173 23-166): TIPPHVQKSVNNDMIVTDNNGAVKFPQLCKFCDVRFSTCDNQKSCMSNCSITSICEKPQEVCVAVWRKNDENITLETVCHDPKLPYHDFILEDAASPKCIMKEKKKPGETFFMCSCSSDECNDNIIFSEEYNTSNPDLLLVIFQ
Method: as §1, §2

[6] = target: T5, BMPRII ECD-Fc (human, UniProt Q13873 27-150, limits assumed); assay: SPR (BIAcore 3000), ECD-Fc on CM5 chip, MB109 as analyte, global 1:1 Langmuir with mass transfer
T5 construct: extracellular domain; Bought from R&D Systems as C-terminal Fc-tagged chimera; not shown: C-terminal human IgG1 Fc tag
T5 sequence (looked up): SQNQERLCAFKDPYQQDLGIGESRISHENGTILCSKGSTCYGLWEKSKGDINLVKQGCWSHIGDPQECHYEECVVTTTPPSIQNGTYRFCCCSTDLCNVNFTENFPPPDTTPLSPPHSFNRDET
Method: as §1, §2

[7] = target: T6, ActRIIa ECD-Fc (human, UniProt P27037 20-135, limits assumed); assay: as above
T6 construct: extracellular domain; Bought from R&D Systems as C-terminal Fc-tagged chimera; not shown: C-terminal human IgG1 Fc tag
T6 sequence (P27037 20-135 limits assumed): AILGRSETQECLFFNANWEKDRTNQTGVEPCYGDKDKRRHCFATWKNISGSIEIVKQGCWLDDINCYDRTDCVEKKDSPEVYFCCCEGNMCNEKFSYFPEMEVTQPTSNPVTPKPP
Method: as §1, §2

[8] = target: T7, ActRIIb ECD-Fc (human, UniProt Q13705 19-137, limits assumed); assay: as above
T7 construct: extracellular domain; Bought from R&D Systems as C-terminal Fc-tagged chimera; not shown: C-terminal human IgG1 Fc tag
T7 sequence (looked up): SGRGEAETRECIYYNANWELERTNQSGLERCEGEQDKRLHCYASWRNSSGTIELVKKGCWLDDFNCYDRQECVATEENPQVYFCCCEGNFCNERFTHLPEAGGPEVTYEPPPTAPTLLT
Method: as §1, §2

binding result [1]: no binding (tested: 20 to 0.3 nM)
B1: ActRIa (ALK2) ECD-Fc (Fc fusion, UniProt Q04771 21-123, looked up)
chain: MEDEKPKVNPKLYMCVCEGLSCGNEDHCEGQQCFSSLSINDGFHVYQKGCFQVYEQGKMTCKTPPSPGQAVECCQGDWCNRNITAQLPTKGKSFPGTQNFHLE
notes: extracellular domain; Bought from R&D Systems as C-terminal Fc-tagged chimera; not shown: C-terminal human IgG1 Fc tag

binding result [1]: no binding (tested: 20 to 0.3 nM)
B2: ALK7 ECD-Fc (Fc fusion, UniProt Q8NER5 22-113, looked up)
chain: LSPGLKCVCLLCDSSNFTCQTEGACWASVMLTNGKEQVIKSCVSLPELNAQVFCHSSNNVTKTECCFTDFCNNITLHLPTASPNAPKLGPME
notes: as for B1

binding result [1]: no binding (tested: 20 to 0.3 nM)
B3: ActRIb (ALK4) ECD-Fc (Fc fusion, UniProt P36896 24-126, looked up)
chain: SGPRGVQALLCACTSCLQANYTCETDGACMVSIFNLDGMEHHVRTCIPKVELVPAGKPFYCLSSEDLRNTHCCYTDYCNRIDLRVPSGHLKEPEHPSMWGPVE
notes: as for B1

binding result [1]: no binding (tested: 20 to 0.3 nM)
B4: TGF-betaRI (ALK5) ECD-Fc (Fc fusion, UniProt P36897 34-126, looked up)
chain: LQCFCHLCTKDNFTCVTDGLCFVSVTETTDKVIHNSMCIAEIDLIPRDRPFVCAPSSKTGSVTTTYCCNQDHCNKIELPTTVKSSPGLGPVEL
notes: extracellular domain; Bought from R&D Systems as C-terminal Fc-tagged chimera; also called TGFβRI; not shown: C-terminal human IgG1 Fc tag

Binder: B5
binding result [2]: no binding (tested: 20 to 0.3 nM)
binding result [3]: no binding (tested: 20 to 0.3 nM)
binding result [4]: no binding (tested: 20 to 0.3 nM)
binding result [5]: no binding (tested: 20 to 0.3 nM)
Kd [6]: 330 pM
koff [6]: 0.00153 s⁻¹
kon [6]: 4.63e+06 M⁻¹ s⁻¹
Kd [7]: 4270 pM
koff [7]: 0.0121 s⁻¹
kon [7]: 2.85e+06 M⁻¹ s⁻¹
Kd [8]: 154 pM
koff [8]: 0.00152 s⁻¹
kon [8]: 9.91e+06 M⁻¹ s⁻¹
